Source: patent publication US10183971B2, “SAA-domain-specific antibodies and peptide antagonists and use thereof to treat inflammatory diseases” (The Feinstein Institute For Medical Research, priority 2013, dated 2019)
Where two headings read alike, the source gives them in different places.

Assays:
human monocytes = experiment: HMGB1 release in human monocyte cultures (Western blots); type: cell-based; settings: 1-10 μg/ml, 16 h
Procedure: (§1) FIG. 4A-4C. […] A, Amino acid sequence of human and murine SAAs (SEQ ID NOS:19-23, top to bottom). B, Western blots of human SAA and SAA1. Note that the anti-HMGB1 IgGs paradoxically cross-reacted with huSAA, but not huSAA1. […] Murine macrophages and human monocytes were stimulated with huSAA or huSAA1 for 16 h, and extracellular HMGB 1 levels were determined by Western blots.
(§2) Overall, there is a >95-98% amino acid sequence homology between members of the human or murine SAA families, and a >75% identity across human and murine families (FIG. 4A), making it seemingly difficult to distinguish between different SAA members by immunoassays. Indeed, the polyclonal antibodies raised against human SAA cross-reacted with both human SAA and SAA1 on Western blots (FIG. 4B, bottom panel). Intriguingly, our rabbit anti-HMGB1 IgGs “specifically” recognized human SAA, but not SAA1, on Western blots (FIG. 4B), implicating a possibility of selectively immunodetecting human SAA with appropriate antibodies.

murine macrophages = experiment: HMGB1 release in murine macrophage cultures (Western blots); type: cell-based; settings: 1-10 μg/ml, 16 h
Procedure: as §1, §2

Balb/C mice = type: in vivo; settings: LPS 5 mg/kg i.p. in combination with SAA 0.8 mg/kg
HMGB1 release = HMGB1 release in vitro by inflammatory mediators (data not shown); type: cell-based

Molecule	induction of HMGB1 release (human monocytes)	induction of HMGB1 release (human monocytes; listed as HuSAA)	induction of HMGB1 release (murine macrophages)	induction of HMGB1 release (murine macrophages; listed as HuSAA)	effect on LPS-induced animal lethality (Balb/C mice; listed as Recombinant SAA protein)	effect on LPS-induced animal lethality (Balb/C mice; listed as SAA)	induction of HMGB1 release in vitro (HMGB1 release)
human SAA: human serum amyloid A, recombinant protein (Cat. No. 300-13, PeproTech) (protein) RSFFSFLGEAFDGARDMWRAYSDMREANYIGSDKYFHARGNYDAAKRGPGGAWAAEVITDARENIQRFFGHGAEDSLADQAANEWGRSGKDPNHFRPAGLPEKY	effectively induced HMGB1 release	induced HMGB1 release	effectively induced HMGB1 release	induced HMGB1 release	dramatically exacerbated	exacerbated LPS-induced animal lethality	–
human SAA1: human SAA1 (Cat. No. 300-53, PeproTech) (protein) RSFFSFLGEAFDGARDMWRAYSDMREANYIGSDKYFHARGNYDAAKRGPGGAWAAEVITDARENIQRFFGHGAEDSLADQAANEWGRSGKDPNHFRPAGLPEKY	barely triggered HMGB1 release	–	barely triggered HMGB1 release	–	–	–	–
KC: inflammatory mediator, sepsis surrogate marker (protein, UniProt P12850 25-96, looked up) Growth-regulated alpha protein: APIANELRCQCLQTMAGIHLKNIQSLKVLPSGPHCTQTEVIATLKNGREACLDPEAPLVQKIVQKMLKGVPK	–	–	–	–	–	–	unable to induce HMGB1 release
